The target in test [1] is TAG-72 positive bovine submaxillary mucin (BSM) (bovine). The experiment in a line: relative affinity constant from competition RIA on BSM.
Test [2] addresses anti-idiotypic antibodies in the serum of one patient who had received ^177Lu-CC49 (Example V, patient not named). In words: size-exclusion HPLC competition vs 125I-HuCC49 + patient serum. (Size exclusion chromatography separates by hydrodynamic size, large species first.)
Test [3] concerns the target anti-CC49 variable region antibodies in the serum of patient three. In words: HPLC, 125I-HuCC49 + serum + 5 Tg competitor; fewer complexes = competitor bound.
For test [4], the target named is anti-CC49 variable region antibodies in the serum of patient four. The test is described as above.
For test [5], the target named is anti-CC49 variable region antibodies in the serum of patient one. The description is as above.
The target of test [6] is anti-CC49 variable region antibodies in the serum of patient two. The test is described as above.
The target in test [7] is anti-CC49 variable region antibodies in the serum of patient five. The test is described as above.
Test [8] has as its target anti-CC49 variable region antibodies in the serum of patient six. The description is as above.
The target is the same in test [9]. The experiment in a line: HPLC, serial dilutions of cold competitor vs 125I-HuCC49 + CP serum.
Test [10] concerns the target mouse anti-idiotypic MAb AI49-3. The experiment in a line: competition RIA vs 125I-CC49 on AI49-3-coated wells.
Test [11] addresses mouse anti-idiotypic MAb AI49-1. The experiment in a line: competition RIA vs 125I-CC49 on AI49-1-coated wells.

B1: HuCC49 CDR variant L-1 (antibody, V domains shown)
VH: QVQLVQSGAEVVKPGASVKISCKASGYTFTDHAIHWVKQNPGQRLEWIGYFSPGNDDFKYNERFKGKATLTADTSASTAYVELSSLRSEDTAVYFCTRSLNMAYWGQGTLVTVSS
VL: DIVMSQSPDSLAVSLGERVTLNCKSSQSVLYSSNSKNYLAWYQQKPGQSPKLLIYWASARESGVPDRFSGSGSGTDFTLTISSVQAEDVAVYYCQQYYSYPLTFGAGTKLELK
Molecule B1 had a fold less Ka than HuCC49 in test [1] of 2 fold. The amount of competitor for 50% inhibition of complex formation in test [2] turned out to be 0.7 Tg. Besides, the percent of complexes in test [3] came out at 12.2%; in test [4] it was 9.8%; in [5] it was 16%; in [6], 10.1%; in test [7], 14.3%; in test [8] it was 16.9%.

B2: humanized monoclonal antibody HuCC49 (parental HuCC49) (antibody, V domains shown)
VH: QVQLVQSGAEVVKPGASVKISCKASGYTFTDHAIHWVKQNPGQRLEWIGYFSPGNDDFKYNERFKGKATLTADTSASTAYVELSSLRSEDTAVYFCTRSLNMAYWGQGTLVTVSS
VL: DIVMSQSPDSLAVSLGERVTLNCKSSQSLLYSGNQKNYLAWYQQKPGQSPKLLIYWASARESGVPDRFSGSGSGTDFTLTISSVQAEDVAVYYCQQYYSYPLTFGAGTKLELK
In the case of B2, in test [1], the Ka turned out to be 3.2e+08 M⁻¹. Further, the amount of competitor for 25% competition in test [9] was 60 ng. The amount of competitor for 50% competition in [9] amounted to 250 ng. Besides, the percent of complexes in [3] came out at 0%; in test [4], 2.6%; in [5], 0%; in test [6], 0.5%; in [7] it was 3%; in test [8], 1.5%.

B3: HuCC49 variant ^97L1,2 (antibody, V domains shown)
VH: QVQLVQSGAEVVKPGASVKISCKASGYTFTDHAIHWVKQNPGQRLEWIGYFSPGNDDFKYNERFKGKATLTADTSASTAYVELSSLRSEDTAVYFCTRSLNMAYWGQGTLVTVSS
VL: DIVMSQSPDSLAVSLGERVTLNCKSSQSVLYSSNSKNYLAWYQQKPGQSPKLLIYWASTRESGVPDRFSGSGSGTDFTLTISSVQAEDVAVYYCQQYYSYPLSFGAGTKLELK
In test [1], B3 displayed a Ka of 1.4e+08 M⁻¹ and a fold less Ka than HuCC49 of 2 to 3 fold.

B4: HuCC49 CDR variant H-2 (antibody, V domains shown)
VH: QVQLVQSGAEVVKPGASVKISCKASGYTFTDHAIHWVKQNPGQRLEWIGWINAGNGNTKYSQKFQGKATLTADTSASTAYVELSSLRSEDTAVYFCTRSLNMAYWGQGTLVTVSS
VL: DIVMSQSPDSLAVSLGERVTLNCKSSQSLLYSGNQKNYLAWYQQKPGQSPKLLIYWASARESGVPDRFSGSGSGTDFTLTISSVQAEDVAVYYCQQYYSYPLTFGAGTKLELK
In test [1], B4 showed a fold less Ka than HuCC49 of 300 fold. Moreover, the fold more competitor for 50% inhibition than HuCC49 in test [10] and in test [11] was 4 to 15 fold in each case. For the same molecule, the amount of competitor for 50% inhibition of complex formation in test [2] was > 10 Tg. Further, the percent of complexes in test [3] was 32.5%; in test [4], 12.7%; in test [5] it was 32.7%; in [6], 24.7%; in test [7], 36.6%; in test [8], 29.7%.

B5: HuCC49 SDR variant ^97L (antibody, V domains shown)
VH: QVQLVQSGAEVVKPGASVKISCKASGYTFTDHAIHWVKQNPGQRLEWIGYFSPGNDDFKYNERFKGKATLTADTSASTAYVELSSLRSEDTAVYFCTRSLNMAYWGQGTLVTVSS
VL: DIVMSQSPDSLAVSLGERVTLNCKSSQSLLYSGNQKNYLAWYQQKPGQSPKLLIYWASARESGVPDRFSGSGSGTDFTLTISSVQAEDVAVYYCQQYYSYPLSFGAGTKLELK
Molecule B5 gave a Ka in test [1] of 3.6e+08 M⁻¹.

B6: HuCC49 CDR variant H-3 (antibody, V domains shown)
VH: QVQLVQSGAEVVKPGASVKISCKASGYTFTDHAIHWVKQNPGQRLEWIGYFSPGNDDFKYNERFKGKATLTADTSASTAYVELSSLRSEDTAVYFCTRGGYYGSGSGSNYWGQGTLVTVSS
VL: DIVMSQSPDSLAVSLGERVTLNCKSSQSLLYSGNQKNYLAWYQQKPGQSPKLLIYWASARESGVPDRFSGSGSGTDFTLTISSVQAEDVAVYYCQQYYSYPLTFGAGTKLELK
With B6, the amount of competitor for 50% inhibition of complex formation in test [2] was determined as 0.4 Tg. For the same molecule, the percent of complexes worked out at 5.1% in test [3]; 3.7% in test [4]; 7.3% in test [5]; 8.2% in test [6]; 4.6% in test [7]; 6.7% in test [8].

B7: HuCC49 CDR variant L-2 (antibody, V domains shown)
VH: QVQLVQSGAEVVKPGASVKISCKASGYTFTDHAIHWVKQNPGQRLEWIGYFSPGNDDFKYNERFKGKATLTADTSASTAYVELSSLRSEDTAVYFCTRSLNMAYWGQGTLVTVSS
VL: DIVMSQSPDSLAVSLGERVTLNCKSSQSLLYSGNQKNYLAWYQQKPGQSPKLLIYWASTRESGVPDRFSGSGSGTDFTLTISSVQAEDVAVYYCQQYYSYPLTFGAGTKLELK
Turning to B7, the fold better competition than HuCC49 in test [2] was determined as 2 fold. Further, the percent of complexes was 3.4% in test [3]; 2.7% in [4]; 2.7% in [5]; 4.4% in test [6]; 2.4% in [7]; 3% in test [8].

B8: HuCC49 CDR variant L-1,2 (antibody, V domains shown)
VH: QVQLVQSGAEVVKPGASVKISCKASGYTFTDHAIHWVKQNPGQRLEWIGYFSPGNDDFKYNERFKGKATLTADTSASTAYVELSSLRSEDTAVYFCTRSLNMAYWGQGTLVTVSS
VL: DIVMSQSPDSLAVSLGERVTLNCKSSQSVLYSSNSKNYLAWYQQKPGQSPKLLIYWASTRESGVPDRFSGSGSGTDFTLTISSVQAEDVAVYYCQQYYSYPLTFGAGTKLELK
B8 yielded a fold less Ka than HuCC49 in [1] of 2 fold. Further, the percent of complexes in test [3] stood at 24.5%; in test [4], 12.6%; in test [5], 24.6%; in [6], 19.4%; in test [7], 20.2%; in test [8], 15.7%.

B9: HuCC49 variant MAb ^97L1,2/^60-62,64H (antibody, V domains shown)
VH: QVQLVQSGAEVVKPGASVKISCKASGYTFTDHAIHWVKQNPGQRLEWIGYFSPGNDDFKYSQKFQGKATLTADTSASTAYVELSSLRSEDTAVYFCTRSLNMAYWGQGTLVTVSS
VL: DIVMSQSPDSLAVSLGERVTLNCKSSQSVLYSSNSKNYLAWYQQKPGQSPKLLIYWASTRESGVPDRFSGSGSGTDFTLTISSVQAEDVAVYYCQQYYSYPLSFGAGTKLELK
As to B9, in test [1], the fold less Ka than HuCC49 was 3 fold. Moreover, in [9], the percent competition at 1 Tg is < 25%.

B10: HuCC49 SDR variant ^60-62,64H (antibody, V domains shown)
VH: QVQLVQSGAEVVKPGASVKISCKASGYTFTDHAIHWVKQNPGQRLEWIGYFSPGNDDFKYSQKFQGKATLTADTSASTAYVELSSLRSEDTAVYFCTRSLNMAYWGQGTLVTVSS
VL: DIVMSQSPDSLAVSLGERVTLNCKSSQSLLYSGNQKNYLAWYQQKPGQSPKLLIYWASARESGVPDRFSGSGSGTDFTLTISSVQAEDVAVYYCQQYYSYPLTFGAGTKLELK
In turn, B10 showed a Ka in [1] of 2.2e+08 M⁻¹.

B11: HuCC49 CDR variant H-1 (antibody, V domains shown)
VH: QVQLVQSGAEVVKPGASVKISCKASGYTFTSYAMHWVKQNPGQRLEWIGYFSPGNDDFKYNERFKGKATLTADTSASTAYVELSSLRSEDTAVYFCTRSLNMAYWGQGTLVTVSS
VL: DIVMSQSPDSLAVSLGERVTLNCKSSQSLLYSGNQKNYLAWYQQKPGQSPKLLIYWASARESGVPDRFSGSGSGTDFTLTISSVQAEDVAVYYCQQYYSYPLTFGAGTKLELK
As to B11, the percent of complexes in test [3] stood at 3.9%; in test [4], 3.3%; in [5], 10.2%; in [6] it was 7%; in [7], 3.5%; in test [8] it was 5.8%.

B12: HuCC49 CDR variant L-3 (antibody, V domains shown)
VH: QVQLVQSGAEVVKPGASVKISCKASGYTFTDHAIHWVKQNPGQRLEWIGYFSPGNDDFKYNERFKGKATLTADTSASTAYVELSSLRSEDTAVYFCTRSLNMAYWGQGTLVTVSS
VL: DIVMSQSPDSLAVSLGERVTLNCKSSQSLLYSGNQKNYLAWYQQKPGQSPKLLIYWASARESGVPDRFSGSGSGTDFTLTISSVQAEDVAVYYCQQYYSTPYSFGAGTKLELK
In the case of B12, the percent of complexes was 48.2% in test [3]; 22.4% in [4]; 34.8% in test [5]; 37.6% in [6]; 46.7% in test [7]; 33.5% in test [8].

B13: HuCC49 variant MAb ^97L/^60-62,64H (antibody, V domains shown)
VH: QVQLVQSGAEVVKPGASVKISCKASGYTFTDHAIHWVKQNPGQRLEWIGYFSPGNDDFKYSQKFQGKATLTADTSASTAYVELSSLRSEDTAVYFCTRSLNMAYWGQGTLVTVSS
VL: DIVMSQSPDSLAVSLGERVTLNCKSSQSLLYSGNQKNYLAWYQQKPGQSPKLLIYWASARESGVPDRFSGSGSGTDFTLTISSVQAEDVAVYYCQQYYSYPLSFGAGTKLELK
In [1], B13 gave a Ka of 5.48e+08 M⁻¹.

For the origin of these results see patent US20080050810A1.
